Source: PMC8387365 (Nature chemical biology, 2021)

Biological target: T1, Kif4A-GFP (UniProt O95239 1-1232)
T1 sequence: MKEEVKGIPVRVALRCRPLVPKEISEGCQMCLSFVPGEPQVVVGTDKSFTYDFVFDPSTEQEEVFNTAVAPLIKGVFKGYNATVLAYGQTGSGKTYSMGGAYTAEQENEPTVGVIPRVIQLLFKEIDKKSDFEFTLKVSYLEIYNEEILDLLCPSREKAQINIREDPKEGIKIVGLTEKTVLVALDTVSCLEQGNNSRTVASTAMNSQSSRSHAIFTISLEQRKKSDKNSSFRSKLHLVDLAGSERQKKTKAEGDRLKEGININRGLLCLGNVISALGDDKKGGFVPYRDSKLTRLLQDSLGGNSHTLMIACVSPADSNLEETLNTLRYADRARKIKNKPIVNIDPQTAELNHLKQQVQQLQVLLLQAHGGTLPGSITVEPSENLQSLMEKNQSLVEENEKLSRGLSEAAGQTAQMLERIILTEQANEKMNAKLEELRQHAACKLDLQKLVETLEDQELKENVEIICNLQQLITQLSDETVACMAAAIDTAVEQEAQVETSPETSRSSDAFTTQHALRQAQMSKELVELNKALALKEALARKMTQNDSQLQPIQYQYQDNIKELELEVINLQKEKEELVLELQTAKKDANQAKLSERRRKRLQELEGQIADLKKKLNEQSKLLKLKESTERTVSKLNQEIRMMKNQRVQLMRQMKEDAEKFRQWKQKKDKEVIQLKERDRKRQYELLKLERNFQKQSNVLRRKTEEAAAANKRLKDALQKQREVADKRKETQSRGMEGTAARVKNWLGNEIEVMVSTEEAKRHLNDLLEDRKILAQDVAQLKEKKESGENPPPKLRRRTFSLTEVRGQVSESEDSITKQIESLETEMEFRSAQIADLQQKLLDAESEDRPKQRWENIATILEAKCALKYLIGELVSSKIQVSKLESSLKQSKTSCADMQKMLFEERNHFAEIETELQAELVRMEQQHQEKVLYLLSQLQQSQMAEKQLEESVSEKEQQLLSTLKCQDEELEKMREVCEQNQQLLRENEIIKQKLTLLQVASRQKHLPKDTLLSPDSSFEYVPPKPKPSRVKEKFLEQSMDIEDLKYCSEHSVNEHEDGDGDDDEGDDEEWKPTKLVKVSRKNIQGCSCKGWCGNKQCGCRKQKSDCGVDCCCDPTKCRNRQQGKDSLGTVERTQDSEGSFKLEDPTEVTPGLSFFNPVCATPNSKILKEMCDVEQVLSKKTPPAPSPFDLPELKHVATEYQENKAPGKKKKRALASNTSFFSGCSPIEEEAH
Assay: BLI

B1: full-length PRC1 (Protein Regulator of Cytokinesis-1) (natural protein)
chain: MRRSEVLAEESIVCLQKALNHLREIWELIGIPEDQRLQRTEVVKKHIKELLDMMIAEEESLKERLIKSISVCQKELNTLCSELHVEPFQEEGETTILQLEKDLRTQVELMRKQKKERKQELKLLQEQDQELCEILCMPHYDIDSASVPSLEELNQFRQHVTTLRETKASRREEFVSIKRQIILCMEALDHTPDTSFERDVVCEDEDAFCLSLENIATLQKLLRQLEMQKSQNEAVCEGLRTQIRELWDRLQIPEEEREAVATIMSGSKAKVRKALQLEVDRLEELKMQNMKKVIEAIRVELVQYWDQCFYSQEQRQAFAPFCAEDYTESLLQLHDAEIVRLKNYYEVHKELFEGVQKWEETWRLFLEFERKASDPNRFTNRGGNLLKEEKQRAKLQKMLPKLEEELKARIELWEQEHSKAFMVNGQKFMEYVAEQWEMHRLEKERAKQERQLKNKKQTETEMLYGSAPRTPSKRRGLAPNTPGKARKLNTTTMSNATANSSIRPIFGGTVYHSPVSRLPPSGSKPVAASTCSGKKTPRTGRHGANKENLELNGSILSGGYPGSAPLQRNFSINSVASTYSEFAKDPSLSDSSTVGLQRELSKASKSDATSGILNSTNIQS
With B1 the Kd was 12.5 ± 2.09 nM.
